Patent US20140371148A1 (AMYLIN PHARMACEUTICALS, published 2014)
One block for each binder: values may come before it. Starred links: 1 amine or outer side, 2 acyl side, 3 side chain; linkers in the order of their positions; H or OH if unused. Groups on a side chain read outwards from the residue. No end group written: not given here. 2‑(S)‑cyano pyrrolidyl = 2-(S)-cyano pyrrolidyl group; γGlu = O=C(O)[C@H](CCC(=O)[*:2])N[*:1]; AEEA = NCCOCCOCC(=O)O

Experiments:
Recombinant DPP-IV = assay: cell-based or functional assay
[1] = target: T1, endogenously expressed GLP-1 receptor of thyroid c-cell carcinoma line 6-23 (UniProt P32301 22-463); assay: cell-based or functional assay
T1 sequence (looked up): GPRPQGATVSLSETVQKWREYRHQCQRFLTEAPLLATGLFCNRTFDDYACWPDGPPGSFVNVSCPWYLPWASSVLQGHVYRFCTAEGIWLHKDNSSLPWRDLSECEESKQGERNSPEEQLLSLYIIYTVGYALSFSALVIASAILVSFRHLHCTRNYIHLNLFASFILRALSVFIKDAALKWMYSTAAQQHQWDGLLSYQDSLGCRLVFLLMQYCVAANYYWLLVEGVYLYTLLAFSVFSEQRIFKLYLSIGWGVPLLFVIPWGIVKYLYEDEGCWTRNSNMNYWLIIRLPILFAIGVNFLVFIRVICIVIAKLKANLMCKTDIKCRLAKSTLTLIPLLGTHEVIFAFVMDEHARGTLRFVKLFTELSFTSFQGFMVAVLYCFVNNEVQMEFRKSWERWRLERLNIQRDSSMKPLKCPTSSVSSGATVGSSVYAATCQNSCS

Binder: YAEGTFISDYSIAMDKIHQQDFVNWLLAQK (C-terminus extended with Ado-Ado-Lys-N-ε-(2-(S)-cyano pyrrolidyl)) [GIP(1-30)-Ado-Ado-Lys-N-ε-(2-(S)-cyano pyrrolidyl)]
- DPP-IV IC50 (Recombinant DPP-IV): 114 nM

Binder: YAEGTFISDYSIAMDKIHQQDFVNWLLAQK([AEEA-γGlu-2‑(S)‑cyano pyrrolidyl]) [Lys^30 N-ε-(Ado-(γ-L-Glu-2-(S)-cyano pyrrolidyl)) GIP(1-30)]
- DPP-IV IC50 (Recombinant DPP-IV): 49 nM

Second part, the binder after the results:

- DPP-IV IC50 (Recombinant DPP-IV): 98 nM
Binder: YAEGTFISDYSIAMDKIHQQDFVNWLLAQK (C-terminus extended with Ado-Lys-N-ε-(2-(S)-cyano pyrrolidyl)) [GIP(1-30)-Ado-Lys-N-ε-(2-(S)-cyano pyrrolidyl)]

- GLP Cyclase EC50 [1]: 0.4 nM
Binder: HAEGTFTSDVSSYLEGQAAKEFIAWLVKGRG (lisinopril joined at the C-terminus through linker type C9 of FIG. 2) [5547]

- DPP-IV IC50 (Recombinant DPP-IV): 64 nM
Binder: YAEGTFISDYSIAMDKIHQQDFVNWLLAQK (N-terminus acylated with γ-L-Glu-(2-(S)-cyano pyrrolidyl)-Ado-Ado) [N-(γ-L-Glu-2-(S)-cyano pyrrolidyl)-Ado-Ado) GIP(1-30)]

- DPP-IV IC50 (Recombinant DPP-IV): 109 nM
Binder: YAEGTFISDYSIALDKIHQQDFVNWLLAQK-{AEEA-Lys(N-ε-(2-(S)-cyano pyrrolidyl))} [[Leu^14] GIP(1-30)-Ado-Lys-N-ε-(2-(S)-cyano pyrrolidyl)]
